In the supplement of paper PMC9170038:

Tested on: MS2 coat protein
Assay: apparent KD of MS2 coat protein; designed switch direction (-1 OFF switch, 1 ON switch): -1; higher = weaker reporter binding
Outline: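 The buffer was Tris-HCl pH 7.5 with KCl, MgCl2, BSA, DTT, tRNA and Tween-20. In it, SNAP-549-labelled MS2 coat protein was titrated in doubling steps from 0.7 or 1.5 nM to 3 µM over chip-bound RNA switches transcribed by stalled E. coli RNA polymerase on Illumina chips. Apparent KD is the per-design median over clusters of curve fits to normalised fluorescence.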

[1] = input ligand: microRNA oligo, concentration not stated
[2] = Eterna round: R95, input ligand: FMN 200 uM
[3] = Eterna round: R95, input ligand: microRNA oligo, concentration not stated
[4] = Eterna round: R95, input ligand: none

Sequence	apparent KD of MS2 coat protein (input ligand: FMN 200 uM)	apparent KD of MS2 coat protein (input ligand: none)	apparent KD of MS2 coat protein [1]	apparent KD of MS2 coat protein [2]	apparent KD of MS2 coat protein [3]	apparent KD of MS2 coat protein [4]
AAUUUAUGAGGAUAUACAGUGUAAAACAUGAGGAUCACCCAUGUUCUUCAAUUAGUAUAUGUAGAAGGCAUAUGUA [JR_Ex5_Sub096] (Eterna round: R97, puzzle: Exclusion 5)	15 nM	13.7 nM				
UUUGCAAGCUUAAGAUCCCACAUGAGGAUCACCCAUGUUGCUGCCGUGAGGUAGCAUUUAACUUAUGCUCGUCUUAU [JL TOV1 3.50] (Eterna round: R97, puzzle: Sensor, turn-off variant 1)	140 nM	176 nM				
AUUAUAUAGGAAGGAUAUAGAAUAUUAUUUUAACAUGAGGAUCACCCAUGUAACCUUAUGUGUAGCUAGAAGGUCCAUUUGUUA [Title] (Eterna round: R96, puzzle: Exclusion NG 2)			221 nM			
AAUUUACAUGAGGAUCACCCAUGUGAGGAUAUGGAUUCGCUGGCCGUAGCCAGUGGAUCCAGAAGGCGCAUGAU [JL-ex1-4.12] (Eterna round: R97, puzzle: Exclusion 1)	402 nM	94.8 nM				
AAUUUGCAAGCGAGAUCCCACAUGAGGAUCACCCAUGUGCUCGUCUUAUAAGGUACUGUGACAAAAGUCACGGUACC [Mat - Sensor, turn-off var - Eli Mod - D95] (Eterna round: R97, puzzle: Sensor, turn-off variant 1)	16.6 nM	16.8 nM				
GUAAAGUGAGGAUAUGGUAAAGUAAUUAUUUAGUAAUUAAUCCAGAAGGCACAUGAGGAUCACCCAUGUAAAUG [Mat - Exclusion 4 - D96] (puzzle: Exclusion 4)				44.6 nM	26.1 nM	28.7 nM
AGUGUGGAGACAGGAUAUGAGAAUAGAUAGAAAUCAGAAGGGUCACAUGAGGAUCACCCAUGUAAAGUCUUGAGGAUGAGUGAU [Prohibition 2 - Jieux - Exclusion NG 1] (Eterna round: R96, puzzle: Exclusion NG 1)	263 nM	88.8 nM	63.9 nM			
AACUAGGCAGGAUAUACAUGAGGAUCACCCAUGUGCCGAUACAAAGGGACUAACAGAGGUAGAAGGGCCUAGAA [ChP 13.04.2015 #1] (puzzle: Exclusion 3)				100 nM	36.2 nM	47.8 nM
AAUCAACAUGAGGAUCACCCAUGUGAGGAUAUACGCAUGCAUGCAUGCAUGCAUGCAAGUAGAAGGCACAAUAC [Design #17] (Eterna round: R97, puzzle: Exclusion 1)	42 nM	27.9 nM				
ACAAGUUUUUAGAUUCUUAACAUGAGGAUCACCCAUGUGCUCGUCUUGUUGGGCCCGGGCCCGCCGGGCCCGGGCCC (Eterna round: R97, puzzle: Sensor, turn-off variant 1)	60.5 nM	72.2 nM				
CUUAGUUGGUAAGGAUAUCCUACAUUGUUCUGGCCCGGGCAUGCUACAUGAGGAUCACCCAUGUGGGAGAAGGUGCGUCAUCGC [Design 18] (Eterna round: R96, puzzle: Exclusion NG 2)	57.4 nM	53.6 nM	45.1 nM			
UACAUGAGGAUCACCCAUGUUUUGUCGUGUAUGGUAUUUAUCUAGGAUAUCAAAUUAUUUAUUUAUGAGAAGGAGAAUAUUAAU [JMF's solution 9] (Eterna round: R96, puzzle: Exclusion NG 3)	37.9 nM	44.6 nM	26.5 nM			
AAUAAGUAUGUGAGGAUAUUGAGGAGGAGGAGGGACAAGAAGGCACAUGAGGAUCACCCAUGUAGGAAAGGACG [JR_BMEx4_Sub002] (Eterna round: R97, puzzle: Brourd's mod of Exclusion 4)	46.9 nM	28 nM				
CUUUAGUGAGGAUAUCAGUGGUAAUACAAUAGUAUUACUACUGAGAAGGCACAUGAGGAUCACCCAUGUUCCUC [Mat - Exclusion 4 - Mod of Omei - D84] (puzzle: Exclusion 4)					26.4 nM	
CUAAGUCGAGGAUAUGCAUGGUGACAUGAUGCCGAUGCACGACAUGAGGAUCACCCAUGUAGAAGGCGACUUAG [Eternabot (L2) Solution 50] (Eterna round: R97, puzzle: Exclusion 2)	8.04 nM	835 nM				
CUUGUUUAUGUAGGAUAUGCCUGGCGUGCCUUUGCAGAAGGACAUGAGGAUCACCCAUGUAACAUGAGGCUCCACCUUGUCGCC [salish99_ExNG1_r04_117] (Eterna round: R96, puzzle: Exclusion NG 1)			111 nM			
AACCUGAGGCAAAGCUUUAGGUGUACAUGAGGAUCACCCAUGUAGGAUAUGGUAGGCUUUGCUUACCAGAAGGACAUAAUGAUG [Mat - Exclusion NG 3 - Mod of JL - D46] (Eterna round: R96, puzzle: Exclusion NG 3)	92.2 nM	53.3 nM	42 nM			

Sequence	apparent KD of MS2 coat protein (input ligand: FMN 200 uM)	apparent KD of MS2 coat protein (input ligand: none)	apparent KD of MS2 coat protein [1]	apparent KD of MS2 coat protein [2]	apparent KD of MS2 coat protein [3]	apparent KD of MS2 coat protein [4]
UCUCGGACAGGAUAUCUGUCAUCUGACAUGAGGAUCACCCAUGUCCUCGCCGCCAACCCAAGAGAAGGGUCCCACA [Eternabot (L1) Solution 76] (Eterna round: R97, puzzle: Exclusion 5)	99.2 nM	120 nM				
UUGGUGUCAGGAUAUGCUUAAUAUAUUUUAUUAUAAUAUAUACAUGAGGAUCACCCAUGUAGAAGGGACAUUGU [LRO-Excl2-07-Fireball XL5] (Eterna round: R97, puzzle: Exclusion 2)	30.2 nM	45.8 nM				
GACUGACAUGAGGAUCACCCAUGUAAGGAUAUAGGGAGCGUCGCUCCGCAACCCGCGCCUAGAAGGUACAAGGU [EX1 C.20] (Eterna round: R97, puzzle: Exclusion 1)	18.2 nM	21.2 nM				
GGAAUACAUGAGGAUCACCCAUGUAAGGAUAUGCUGAAUAACACGGAAUUAACGUGCAGCAGAAGGUACAAAGG [Mat - Mod of my Eli Mod D43] (puzzle: Exclusion 1)				62.8 nM	63.3 nM	113 nM
CGUCCACUUGAGGAUCACCCAAGUUAGGAUAUCUCCCAGCUCGCAUGUGCGGUUGGUCAGAGAAGGAACCAGGG [Ravereed] (Eterna round: R97, puzzle: Exclusion 1)	49.5 nM	29 nM				
AAUACACAUGAGGAUCACCCAUGUUAGGAUAUGAGCAGACAGACAGACAGACAGACGAUCAGAAGGAAUAGGAA [Excls1-V] (puzzle: Exclusion 1)				26.1 nM	25.4 nM	32.9 nM
CAGUACUGAGGAUAUACAUGAGGAUCACCCAUGUGUUCCAGCUAGGAGACUAGCAAGUGUAGAAGGCAGUACUG [jl-ex3-4.01 salish99 mod] (Eterna round: R97, puzzle: Exclusion 3)	293 nM	434 nM				
GCCGGUCAUGUAGGAUAUGGCCGGCGGUGCCGGCCAGAAGGACAUGAGGAUCACCCAUGUGCCGGCCUUUGGCCGGCGCCCGGC (Eterna round: R96, puzzle: Exclusion NG 1)	8.65 nM	18.6 nM	11.2 nM			
GCACUGCGAGGAUAUACAUGAGGAUCACCCAUGUAUCGGUAGUCAAGGUUAAUUUAAGGUAGAAGGCGCGUAAA [JR_Ex3_Sub005] (Eterna round: R97, puzzle: Exclusion 3)	27.4 nM	23.5 nM				
GCAAGCUUUUGCUCGUCUUACAUGAGGAUCACCCAUGUCGGGUUCGGUCGUCGCGGCUGGGCUUGCCGGGCGCCGGG [-28.7, -55.8 kcal, A 10%] (Eterna round: R97, puzzle: Sensor, turn-off variant 1)	215 nM	244 nM				
AGUACUAACACGAAAGUGUUAGUACAAUAAGCUUGUGAAACAUGAGGAUCACCCAUGUCCUCCUAAGCUCGUCUUAU [salish99_TOv2_r3_049] (puzzle: Sensor v3, turn-off variant 2)				45.4 nM	140 nM	43.2 nM
AACUGGACAGGAUAUGUUCUUGAGCACUUGAGGAUCACCCAAGUCGUCGAGAACUCAGGCACAGAAGGGUUAAUGA [Bera] (Eterna round: R97, puzzle: Exclusion 5)	35.1 nM	17.7 nM				
UUAUUAAGUGUGAGGAUAUGCUGGUCCUUGGAUCAGCAGAAGGCACAUGAGGAUCACCCAUGUACUUUAUAAAU [JL bmx4 3.05] (puzzle: Brourd's mod of Exclusion 4)					14.6 nM	
GCACAGGCAGGAUAUACAUGAGGAUCACCCAUGUGAUCCCUUAGGUACAAAAGUACAAGUAGAAGGGCCUGUGC [Omei Ex3 Model Bachelor's Dilema v45] (Eterna round: R97, puzzle: Exclusion 3)	146 nM	1460 nM				
UAUUAGCAAGUAAGAUCCCACAUGAGGAUCACCCAUGUGCUCGUCUUAUAAGGUACUGUGACGAUAGUCACGGUACC [Mat - Sensor, turn-off var - Eli Mod - D44] (Eterna round: R97, puzzle: Sensor, turn-off variant 1)	18.3 nM	17.8 nM				
CUUUUGUGAGGAUAUCAGUAGUAAUACAAUAGUAUUACUACUGAGAAGGCACAUGAGGAUCACCCAUGUUCCUC [Ex4 344 Omei mod 0] (puzzle: Exclusion 4)					40.5 nM	
UGUAAGCUAGGAUAUGCUUUGGGAAAGCAUUCCUUCGAUAAACUUGAGGAUCACCCAAGUAGAAGGAGCUUACU [salish99_ex2_r4_006] (Eterna round: R97, puzzle: Exclusion 2)	17.5 nM	11.5 nM				
